Test results reported in the Human Domainome abundance scans (Beltran et al. 2025).
± gives the uncertainty stated by the source.

B1: Transcription elongation factor A N-terminal and central domain-containing protein, residues 30 to 77; numbered along this chain, Q8N8B7 (parent)
chain: LTELETIYVTKEHLQETDVVRAVYRVLKNCPSVALKKKAKCLLSKWKA

Variants of: B1
Assay: abundance fitness (aPCA) (normalised: wild type 0, dead -1); higher = more abundant; growth selection in yeast, the domain comes from the species named
Conditions: Homo sapiens

Point of comparison: LTELETIYVTKEHLQETDVVRAVYRVLKNCPSVALKKKVKCLLSKWKA, abundance fitness 0.096 ± 0.078. Against it:
- LTELETIYVTKEHLQETDVVRAVYRVLKNCPSVALKKKAKCLLDKWKA — lower, -0.537 ± 0.18
- LTELETIYVTKEHLQETDVVRAVYRVLKNCPSVALKKKAKCLLAKWKA — lower, -0.232 ± 0.11
- LTELETIYVTKEHLQETDVVRAVYRVLKNCPSVALKKKAKCLLEKWKA — lower, -0.262 ± 0.17
- LTELETIYVTKEHLQETDVVRAVYRVLKNCPSVALKKKAKCLLCKWKA — lower, -0.73 ± 0.15
- LTELETIYVTKEHLQETDVVRAVYRVLKNCPSVALKKKNKCLLSKWKA — lower, -0.61 ± 0.36
- LTELETIYVTKEHLQETDVVRAVYRVLKNCPSVALKKKHKCLLSKWKA — lower, -0.553 ± 0.27
- LTELETIYVTKEHLQETDVVRAVYRVLKNCPSVALKKKEKCLLSKWKA — lower, -0.972 ± 0.16
- LTELETIYVTKEHLQETDVVRAVYRVLKNCPSVALKKKLKCLLSKWKA — lower, -0.089 ± 0.08
- LTELETIYVTKEHLQETDVVRAVYRVLKNCPSVALKKKTKCLLSKWKA — lower, -0.512 ± 0.14
- LTELETIYVTKEHLQETDVVRAVYRVLKNCPSVALKKKRKCLLSKWKA — lower, -0.968 ± 0.093
- LTELETIYVTKEHLQETDVVRAVYRVLKNCPSVALKKKKKCLLSKWKA — lower, -0.883 ± 0.35
- LTELETIYVTKEHLQETDVVRAVYRVLKNCPSVALKKKDKCLLSKWKA — lower, -0.826 ± 0.19
- LTELETIYVTKEHLQETDVVRAVYRVLKNCPSVALKKKCKCLLSKWKA — within error, 0.072 ± 0.12
- LTELETIYVTKEHLQETDVVRAVYRVLKNCPSVALKKKYKCLLSKWKA — lower, -0.452 ± 0.17
- LTELETIYVTKEHLQETDVVRAVYRVLKNCPSVALKKKMKCLLSKWKA — within error, -0.016 ± 0.12
- LTELETIYVTKEHLQETDVVRAVYRVLKNCPSVALKKKSKCLLSKWKA — lower, -0.745 ± 0.13
- LTELETIYVTKEHLQETDVVRAVYRVLKNCPSVALKKKGKCLLSKWKA — lower, -0.576 ± 0.064
- LTELETIYVTKEHLQETDVVRAVYRVLKNCPSVALKKKIKCLLSKWKA — within error, 0.2 ± 0.18
- LTELETIYVTKEHLQETDVVRAVYRVLKNCPSVALKSKAKCLLSKWKA — lower, -0.346 ± 0.092
- LTELETIYVTKEHLQETDVVRAVYRVLKNCPSVALKGKAKCLLSKWKA — lower, -0.578 ± 0.081
- LTELETIYVTKEHLQETDVVRAVYRVLKNCPSVALKNKAKCLLSKWKA — lower, -0.155 ± 0.17
- LTELETIYVTKEHLQETDVVRAVYRVLKNCPSVALKCKAKCLLSKWKA — lower, -0.895 ± 0.12
- LTELETIYVTKEHLQETDVVRAVYRVLKNCPSVALKHKAKCLLSKWKA — lower, -0.609 ± 0.19
- LTELETIYVTKEHLQETDVVRAVYRVLKNCPSVALKWKAKCLLSKWKA — lower, -0.68 ± 0.11
- LTELETIYVTKEHLQETDVVRAVYRVLKNCPSVALKAKAKCLLSKWKA — lower, -0.365 ± 0.086
- LTELETIYVTKEHLQETDVVRAVYRVLKNCPSVALKRKAKCLLSKWKA — within error, 0.023 ± 0.065
- LTELETIYVTKEHLQETDVVRAVYRVLKNCPSVALKIKAKCLLSKWKA — lower, -0.337 ± 0.15
- LTELETIYVTKEHLQETDVVRAVYRVLKNCPSVALKEKAKCLLSKWKA — lower, -0.248 ± 0.1
- LTELETIYVTKEHLQETDVVRAVYRVLKNCPSVALKPKAKCLLSKWKA — lower, -1.02 ± 0.15
- LTELETIYVTKEHLQETDVVRAVYRVLKNCPSVALKTKAKCLLSKWKA — lower, -0.574 ± 0.1
- LTELETIYVTKEHLQETDVVRAVYRVLKNCPSVALKQKAKCLLSKWKA — lower, -0.553 ± 0.17
- LTELETIYVTKEHLQETDVVRAVYRVLKNCPSVALWKKAKCLLSKWKA — within error, 0.113 ± 0.094
- LTELETIYVTKEHLQETDVVRAVYRVLKNCPSVALYKKAKCLLSKWKA — within error, 0.049 ± 0.14
- LTELETIYVTKEHLQETDVVRAVYRVLKNCPSVALLKKAKCLLSKWKA — lower, -0.137 ± 0.079
- LTELETIYVTKEHLQETDVVRAVYRVLKNCPSVALNKKAKCLLSKWKA — lower, -0.833 ± 0.19
- LTELETIYVTKEHLQETDVVRAVYRVLKNCPSVALVKKAKCLLSKWKA — within error, 0.066 ± 0.075
- LTELETIYVTKEHLQETDVVRAVYRVLKNCPSVALPKKAKCLLSKWKA — lower, -0.211 ± 0.13
- LTELETIYVTKEHLQETDVVRAVYRVLKNCPSVALQKKAKCLLSKWKA — within error, -0.063 ± 0.12
- LTELETIYVTKEHLQETDVVRAVYRVLKNCPSVALMKKAKCLLSKWKA — within error, 0.085 ± 0.1
- LTELETIYVTKEHLQETDVVRAVYRVLKNCPSVALSKKAKCLLSKWKA — lower, -0.609 ± 0.097
- LTELETIYVTKEHLQETDVVRAVYRVLKNCPSVALKKKAKCDLSKWKA — lower, -0.894 ± 0.19
- LTELETIYVTKEHLQETDVVRAVYRVLKNCPSVALKKKAKCFLSKWKA — lower, -0.174 ± 0.14
- LTELETIYVTKEHLQETDVVRAVYRVLKNCPSVALKKKAKCPLSKWKA — lower, -1.01 ± 0.35
- LTELETIYVTKEHLQETDVVRAVYRVLKNCPSVALKKKAKCGLSKWKA — lower, -1.05 ± 0.12
- LTELETIYVTKEHLQETDVVRAVYRVLKNCPSVALKKKAKCYLSKWKA — lower, -0.737 ± 0.28
- LTELETIYVTKEHLQETDVVRAVYRVLKNCPSVALKKKAKCWLSKWKA — within error, -0.026 ± 0.098
- LTELETIYVTKEHLQETDVVRAVYRVLKNCPSVALKKKAKCTLSKWKA — lower, -0.703 ± 0.2
- LTELETIYVTKEHLQETDVVRAVYRVLKNCPSVALKKKAKCALSKWKA — lower, -0.689 ± 0.11
- LTELETIYVTKEHLQETDVVRAVYRVLKNCPSVALKKKAKCQLSKWKA — lower, -0.791 ± 0.25
- LTELETIYVTKEHLQETDVVRAVYRVLKNCPSVALKKKAKCKLSKWKA — lower, -1.13 ± 0.23
- LTELETIYVTKEHLQETDVVRAVYRVLKNCPSVALKKKAKCVLSKWKA — lower, -0.354 ± 0.086
- LTELETIYVTKEHLQETDVVRAVYRVLKNCPSVALKKKAKCCLSKWKA — lower, -0.839 ± 0.36
- LTELETIYVTKEHLQETDVVRAVYRVLKNCPSVALKKKAKCNLSKWKA — lower, -0.871 ± 0.26
